From paper PMC10008584, “Cryo-EM structures of human Cx36/GJD2 neuronal gap junction channel” (Nature Communications, 2023)
One block for each molecule: values may come before it.

Tests used:
[1] = target: BRIL-fused human Cx36 (cytoplasmic loop residues 109-187 replaced with cytochrome b562RIL) (UniProt Q9UKL4); assay: cryo-EM structure; single-particle cryo-EM of the purified gap junction channel in LMNG/CHS detergent; D6 symmetry; 50 mM phenylalanine added for Cx36-WT
[2] = target: the molecule itself; assay: cryo-EM structure; single-particle cryo-EM of the purified gap junction channel in MSP1E1 nanodiscs with soybean polar lipid extract; D6, C6 or C1 symmetry; 50 mM phenylalanine added for Cx36-WT
[3] = target: the molecule itself; assay: cryo-EM structure; single-particle cryo-EM of the purified gap junction channel in LMNG/CHS detergent; D6 symmetry; 50 mM phenylalanine added for Cx36-WT

stoichiometry N [1]: 12
Molecule: BRIL-fused human Cx36 (cytoplasmic loop residues 109-187 replaced with cytochrome b562RIL) (from UniProt Q9UKL4 1-108; P0ABE7 21-128; Q9UKL4 188-321)

B1: Human Cx36 with N-terminal residues 2-8 deleted (natural protein, UniProt Q9UKL4 1-321, looked up)
chain: MRLLEAAVQQHSTMIGRILLTVVVIFRILIVAIVGETVYDDEQTMFVCNTLQPGCNQACYDRAFPISHIRYWVFQIIMVCTPSLCFITYSVHQSAKQRERRYSTVFLALDRDPPESIGGPGGTGGGGSGGGKREDKKLQNAIVNGVLQNTENTSKETEPDCLEVKELTPHPSGLRTASKSKLRRQEGISRFYIIQVVFRNALEIGFLVGQYFLYGFSVPGLYECNRYPCIKEVECYVSRPTEKTVFLVFMFAVSGICVVLNLAELNHLGWRKIKLAVRGAQAKRKSIYEIRNKDLPRVSVPNFGRTQSSDSAYV
notes: Connexin 36 (Cx36, GJD2), human, full length with 7 N-terminal residues (2-8) deleted; Made by PCR from pXY-Cx36-WT; expressed and purified by the same protocol as Cx36-WT; also called Cx36-ΔN8; Cx36_(Nano)-ΔN8; source: HEK293E, transiently transfected, purified as Cx36-WT; reconstituted in MSP1E1 soybean lipid nanodiscs; not shown: eYFP, C-terminal, cleaved; 10xHis, C-terminal, cleaved; copies: …
binding result [2]: binds

B2: Wild-type human connexin 36 (Cx36/GJD2) gap junction channel (natural protein, UniProt Q9UKL4 1-321, looked up)
chain: MGEWTILERLLEAAVQQHSTMIGRILLTVVVIFRILIVAIVGETVYDDEQTMFVCNTLQPGCNQACYDRAFPISHIRYWVFQIIMVCTPSLCFITYSVHQSAKQRERRYSTVFLALDRDPPESIGGPGGTGGGGSGGGKREDKKLQNAIVNGVLQNTENTSKETEPDCLEVKELTPHPSGLRTASKSKLRRQEGISRFYIIQVVFRNALEIGFLVGQYFLYGFSVPGLYECNRYPCIKEVECYVSRPTEKTVFLVFMFAVSGICVVLNLAELNHLGWRKIKLAVRGAQAKRKSIYEIRNKDLPRVSVPNFGRTQSSDSAYV
notes: Connexin 36 (Cx36, GJD2), human, full length (Met1-Val321); The tags were cut off at an HRV 3C site between Cx36 and eYFP; residues of the site may be left at the C-terminus; also called Cx36-WT; Cx36_(LMNG)-WT; source: HEK293E, transiently transfected, purified (Rho-1D4 antibody resin, HRV 3C cleavage, Superose 6 Increase SEC); in LMNG/CHS or reconstituted in MSP1E1 soybean lipid nanodiscs; not …
stoichiometry N [3]: 12
